Values of other authors, collected in patent US10385327B2, “Enhanced E. coli for the production of fatty acids and method of producing the same” (University of Puerto Rico, priority 2012, dated 2019).

B1: E. coli FabA dehydratase: DH enzyme involved in fatty acid biosynthesis in E. coli (protein, UniProt P0A6Q3 2-172, looked up)
3-hydroxydecanoyl-[acyl-carrie …: VDKRESYTKEDLLASGRGELFGAKGPQLPAPNMLMMDRVVKMTETGGNFDKGYVEAELDINPDLWFFGCHFIGDPVMPGCLGLDAMWQLVGFYLGWLGGEGKGRALGVGEVKFTGQVLPTAKKVTYRIHFKRIVNRRLIMGLADGEVLVDGRLIYTASDLKVGLFQDTSAF
B2: FAS 1-1168 construct: Fatty Acid Synthase construct of Pasta et al., 2007, literature comparator for dehydratase specific activity (protein, UniProt P49327 1-1168, looked up, fragment)
chain: MEEVVIAGMSGKLPESENLQEFWDNLIGGVDMVTDDDRRWKAGLYGLPRRSGKLKDLSRFDASFFGVHPKQAHTMDPQLRLLLEVTYEAIVDGGINPDSLRGTHTGVWVGVSGSETSEALSRDPETLVGYSMVGCQRAMMANRLSFFFDFRGPSIALDTACSSSLMALQNAYQAIHSGQCPAAIVGGINVLLKPNTSVQFLRLGMLSPEGTCKAFDTAGNGYCRSEGVVAVLLTKKSLARRVYATILNAGTNTDGFKEQGVTFPSGDIQEQLIRSLYQSAGVAPESFEYIEAHGTGTKVGDPQELNGITRALCATRQEPLLIGSTKSNMGHPEPASGLAALAKVLLSLEHGLWAPNLHFHSPNPEIPALLDGRLQVVDQPLPVRGGNVGINSFGFGGSNVHIILRPNTQPPPAPAPHATLPRLLRASGRTPEAVQKLLEQGLRHSQDLAFLSMLNDIAAVPATAMPFRGYAVLGGERGGPEVQQVPAGERPLWFICSGMGTQWRGMGLSLMRLDRFRDSILRSDEAVKPFGLKVSQLLLSTDESTFDDIVHSFVSLTAIQIGLIDLLSCMGLRPDGIVGHSLGEVACGYADGCLSQEEAVLAAYWRGQCIKEAHLPPGAMAAVGLSWEECKQRCPPGVVPACHNSKDTVTISGPQAPVFEFVEQLRKEGVFAKEVRTGGMAFHSYFMEAIAPPLLQELKKVIREPKPRSARWLSTSIPEAQWHSSLARTSSAEYNVNNLVSPVLFQEALWHVPEHAVVLEIAPHALLQAVLKRGLKPSCTIIPLMKKDHRDNLEFFLAGIGRLHLSGIDANPNALFPPVEFPAPRGTPLISPLIKWDHSLAWDVPAAEDFPNGSGSPSAAIYNIDTSSESPDHYLVDHTLDGRVLFPATGYLSIVWKTLARALGLGVEQLPVVFEDVVLHQATILPKTGTVSLEVRLLEASRAFEVSENGNLVVSGKVYQWDDPDPRLFDHPESPTPNPTEPLFLAQAEVYKELRLRGYDYGPHFQGILEASLEGDSGRLLWKDNWVSFMDTMLQMSILGSAKHGLYLPTRVTAIHIDPATHRQKLYTLQDKAQVADVVVSRWLRVTVAGGVHISGLHTESAPRRQQEQQVPILEKFCFTPHTEEGCLSERAALQEELQLCKGLVQALQTKVTQQGLKMVVPGLDGAQ

Assays:
[1] = system: E. coli BL21-DE3-CodonPlus (RIL) cells; conditions: previous work by others
[2] = literature value for FAS dehydratase construct

Molecule | effect of overexpression on production of fatty acids in E. coli [1] | specific activity reported (Pasta et al., 2007) [2]
B1 | does not increase the production of fatty acids | –
B2 | – | 204 mol product/(min*mol enzyme)
